Assay [1] addresses T1, recombinant human or cyno PD-1 (immobilized onto CM5 chip, Example 1) (human or cyno ( which was …, UniProt Q15116 25-167, limits assumed)).
T1 construct: also called antigen
The experiment in a line: SPR (Biacore T200), PD-1 immobilized on CM5 chip, Fab as analyte. As to the method: Immobilization of recombinant human or cyno PD-1 onto CM5 chip: A CM5 sensor chip was activated in FC2 by 7-min. injection (10 μl/min.) of freshly prepared 1:1 50 mM NHS: 200 mM EDC. PD-1 at a concentration of 0.2 μg/ml in 10 mM sodium acetate buffer pH 5.0 was injected onto the activated chip at 5 μl/min. (HBS-EP running buffer: 10 mM HEPES, 150 mM NaCl, 3.4 mM EDTA, 0.005% surfactant P20, pH 7.4) for 120 seconds. The remaining active coupling sites were blocked with 7 min. injection of 1M ethanolamine at 10 μl/min.
Binding kinetics measurement: Various concentrations of the Fabs were injected with a flow rate of 30 μl/min for 180 seconds(s) during the association phase. The dissociation of bound antibody was monitored by flowing HBS-EP buffer over the chip surface for 600 seconds. At the end of each cycle, the sensor surfaces were regenerated by injecting regeneration buffer (10 mM glycine buffer with pH 1.7) for 180 seconds. After sensograms were corrected for signals from a reference flow, kinetics were calculated with BIACORE T 200 evaluation software ver.1.0 (Biacore, GE, USA).

For assay [2], the target named is T2, polyhistidine-tagged human PD-1 (hPD1-His, 98AFK) (human, UniProt Q15116 25-167, limits assumed).
T2 construct: also called human PD1-His; Human PD-1-His
The experiment in a line: SPR (Biacore T200), mAb captured on anti-Fc chip; reference Mouse 08A. The procedure: (§1) A surface plasmon resonance (SPR)-based assay utilizing capture mode was used to determine the binding kinetics and affinities of anti-PD-1 antibodies against polyhistidine-tagged human PD-1 (hPD1-His, 98AFK). Following manufacture instructions, a series S sensor chip CM5 (GE Healthcare, BR100530) was activated using an amine-coupling kit (GE Healthcare, BR100050). Either human capture kit (anti-human Fc, 25 μg/mL, GE Healthcare, BR100839) or mouse capture kit (anti-mouse Fc, 30 μg/mL, GE Healthcare, BR100838) antibody diluted in the supplied pH 5.0, 10 mM sodium acetate buffer was immobilized onto the activated surface for 7 minutes. After immobilization, surfaces were deactivated with 1M ethanolamine/HCl (pH 8.5) for 7 minutes.
(§2) Binding kinetics were measured on a biacore T200 in HBS-EP+ (0.01 M HEPES pH 7.4, 0.15 M NaCl, 3 mM EDTA, 0.05% v/v Surfactant P20) running buffer at 25° C. Antibodies were captured either on mouse or human Fc capture surfaces at 10 μL/min flow rate. Antibodies were captured on flow cells 2, 3 and 4. Flow cell 1 was used as a reference with no antibody captured. A 6-point, 2-fold serial dilutions of the analyte 98AFK (hPD1-His), starting at 20 nM, were prepared in the running buffer (HBS-EP+). Two buffer blanks were included for double referencing. Titration series were injected for 3 minutes at 50 μl/min followed by 600 seconds of dissociation. After each cycle, surfaces were regenerated with a 30 second injection of 3M MgCl₂ at […] on the anti-human Fc chip or 180 seconds of 10 mM Glycine pH 1.7 at 10 μl/min on the anti-mouse Fc chip.
(§3) Sensorgram processing and data analysis were performed with Biacore T200 Evaluation Software Version 2.0.4 (GE Healthcare). […] Processed curves were globally fitted to a 1:1 binding model to determine the association rate constant, kₒₙ (M⁻¹s⁻¹, where “M” equals molar and “s” equals seconds) and the dissociation rate constant, koff (s⁻¹). These rate constants were used to calculate the equilibrium dissociation constant, KD (M)=koff/kₒₙ.

Assay [3] concerns the target T2, polyhistidine-tagged human PD-1 …. The experiment in a line: SPR (Biacore T200), mAb captured on anti-Fc chip, hPD1-His as analyte. As to the method:
as §1, §2, §3

The target is the same in assay [4]. The experiment in a line: SPR solution affinity (Biacore T200, competition mode, equilibrium titration). The procedure: (§4) The titration series were incubated for 16-24 hours to reach equilibrium at room temperature. The unbound sites were measured using a BIAcore chip immobilized with antigen in a competition mode where SPR signal detected corresponded to unbound antibody.
(§5) The titration series following >16 hr. incubation were injected over the sensor chip immobilized with hPD1-His (above). Free, unbound antibodies concentrations were measured as proportional to RU after 120 seconds (for 500 pM mAb series) or 400 seconds (for 100 pM mAb series) of injection at 10 μL/min. After each cycle, surfaces were regenerated with a 30 second injection of 1:1 mixture of 3M MgCl₂ and pH 2.0 10 mM glycine at 30 μL/min.
For orientation: In SPR one partner is held on a chip, and binding of the other changes the refractive index at the surface.

The target is the same in assay [5]. The experiment in a line: SPR solution affinity; reference Humanized 08A IgG4 S61N (98AIO). As to the method: as §4, §5

Changes are numbered by the printed parent chain. Names and notes keep the numbering of the source.

T2 sequence (Q15116 25-167 limits assumed): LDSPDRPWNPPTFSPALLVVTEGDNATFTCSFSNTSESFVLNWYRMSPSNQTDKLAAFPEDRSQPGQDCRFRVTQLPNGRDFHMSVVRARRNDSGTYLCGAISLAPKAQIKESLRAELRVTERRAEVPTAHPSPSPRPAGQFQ
T1 sequence (Q15116 25-167 limits assumed): as above

B1: Fab 098 (Fab, V domains shown)
VH: EVQLVQSGAEVKKPGASVKVSCKASGYTFTSYYLYWVRQAPGQGLEWIGGVNPSNGGTNFNEKFKSRVTLTVDTSISTAYMELSRLRSDDTAVYYCTRRLSHYDGGFDYWGQGTTVTVSS
VL: DIVMTQTPLSLSVTPGQPASISCRASKSVSTSGFSYLHWYLQKPGQPPQLLIFLGKFRESGVPDRFSGSGSGTDFTLKISRVEAEDVGVYYCQHSWELPLTFGQGTKLEIKR
notes: also called Fab98
Regarding B1, in assay [1], the Kd (as a rule, the constant that tells how readily two partners part at equilibrium) is 0.031 nM.

B2: Fab 133 (Fab, V domains shown)
VH: B1 VH with S31Q, L34Y, A92S, L100D, H102N
VL: B1 VL with K56F, F57Y, E59T, Q93S, H94Q, S95M, W96A, E97D
Regarding B2, in assay [1], the equilibrium dissociation constant (Kd) came out at 0.031 nM.

B3: Fab 128 (Fab, V domains shown)
VH: B1 VH with S31Q, L34Y, A92S, L100D, H102N
VL: B1 VL with K56R, F57H, E59A
As to B3, the Kd in assay [1] came out at 0.015 nM.

B4: Fab 138 (Fab, V domains shown)
VH: B1 VH with S31Q, L34T, V51I, N52E, S54N, N55R, L100D, H102N
VL: B1 VL with G55A, K56S, F57N, R58L, Q93A, H94Q, S95T, W96F
For B4, the Kd in assay [1] was determined as 0.066 nM.

B5: Fab 103 (Fab, V domains shown)
VH: B1 VH
VL: B1 VL with K56R, F57Y, R58L, E59Q
Turning to B5, the dissociation constant (Kd) in assay [1] was 0.028 nM.

B6: Fab 104 (Fab, V domains shown)
VH: B1 VH
VL: B1 VL with K56T, F57H, R58S, E59V
As to B6, the dissociation constant (Kd) in assay [1] stood at 0.052 nM.

B7: Fab 101 (Fab, V domains shown)
VH: B1 VH
VL: B1 VL with F57Y, R58G, E59A, Q93A, H94Q, S95A, W96T, E97Q
Consider B7, for which, in assay [1], the Kd was 0.029 nM.

B8: Fab 100 (Fab, V domains shown)
VH: B1 VH
VL: B1 VL with G55S, F57Y, E59S, Q93S, H94Q, S95A, W96Y, E97H
As for B8, the Kd in assay [1] amounted to 0.024 nM.

B9: Fab 102 (Fab, V domains shown)
VH: B1 VH
VL: B1 VL with K56H, R58A, E59S
On to B9, for which the dissociation constant (Kd) in assay [1] is 0.042 nM.

B10: Fab 139 (Fab, V domains shown)
VH: B1 VH with S31Q, L34Y, A92S, L100D, H102N
VL: B1 VL with G55S, E59R
For B10, the Kd in assay [1] worked out at 0.014 nM.

B11: Fab 099 (Fab, V domains shown)
VH: B1 VH
VL: B1 VL with K56T, F57H, E59A
As for B11, in assay [1], the dissociation constant (Kd) turned out to be 0.034 nM.

B12: Humanized 08A IgG4 S61N (lot 98AIO) (antibody)
heavy: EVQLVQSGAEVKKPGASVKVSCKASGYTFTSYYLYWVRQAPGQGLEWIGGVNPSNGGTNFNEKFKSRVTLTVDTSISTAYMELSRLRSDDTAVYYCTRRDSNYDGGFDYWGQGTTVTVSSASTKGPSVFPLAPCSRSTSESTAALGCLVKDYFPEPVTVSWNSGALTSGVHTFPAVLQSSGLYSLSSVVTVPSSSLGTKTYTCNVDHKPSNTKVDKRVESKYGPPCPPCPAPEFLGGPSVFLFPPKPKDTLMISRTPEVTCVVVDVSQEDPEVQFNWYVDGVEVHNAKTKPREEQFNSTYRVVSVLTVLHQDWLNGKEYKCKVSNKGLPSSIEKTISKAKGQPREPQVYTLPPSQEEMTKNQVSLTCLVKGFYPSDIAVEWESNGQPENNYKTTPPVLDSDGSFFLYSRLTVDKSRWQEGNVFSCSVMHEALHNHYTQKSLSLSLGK
light: DIVMTQTPLSLSVTPGQPASISCRASKSVSTSGFSYLHWYLQKPGQPPQLLIFLASNLESGVPDRFSGSGSGTDFTLKISRVEAEDVGVYYCQHSWELPLTFGQGTKLEIKRTVAAPSVFIFPPSDEQLKSGTASVVCLLNNFYPREAKVQWKVDNALQSGNSQESVTEQDSKDSTYSLSSTLTLSKADYEKHKVYACEVTHQGLSSPVTKSFNRGEC
notes: IgG4 S228P / kappa; also called Humanized x [PD-1_H] mAb (08A/HuPD1A-11 S61N S228P corrected) IgG4 / Kappa
Turning to B12, the “KD (REF)/KD” value in assay [2] is 4.4; in assay [5] it was 1. Besides, the Kd in assay [3] came to 0.054 nM; in assay [4], 0.033 nM.

B13: Humanized 08A IgG4 Fab 098 G56A (antibody, V domains shown)
VH: B1 VH with G56A, N61S
VL: B1 VL with G55A, K56S, F57N, R58L
notes: IgG4 S228P / kappa; also called 90AVZ
For B13, the “KD (REF)/KD” value amounted to 3 in assay [2] and 1.7 in assay [5]. Moreover, the equilibrium dissociation constant (Kd) was 0.079 nM in assay [3] and 0.019 nM in assay [4].

B14: Humanized 08A IgG4 S61N N55E (antibody, V domains shown)
VH: B1 VH with N55E, L100D, H102N
VL: B1 VL with G55A, K56S, F57N, R58L
notes: IgG4 S228P / kappa; also called 50AQK; Humanized x [PD-1_H] mAb (08A/HuPD1A-11 N55E S228P) IgG4 / Kappa
With B14, in assay [2], the “KD (REF)/KD” value was 0.8. For the same molecule, binding in assay [3] was put at a Kd of 0.3 nM.

B15: Humanized 08A IgG4 (antibody, V domains shown)
VH: B1 VH with N61S, L100D, H102N
VL: B1 VL with G55A, K56S, F57N, R58L
notes: IgG4 S228P / kappa; also called 73AGG; Humanized x [PD-1_H] mAb (08A/HuPD1A-11 S228P) IgG4 / Kappa
Regarding B15, the “KD (REF)/KD” value in assay [2] was 1.7. The Kd in assay [3] is 0.14 nM.

B16: Humanized 08A IgG4 S61N (lot 67AGG) (antibody)
heavy: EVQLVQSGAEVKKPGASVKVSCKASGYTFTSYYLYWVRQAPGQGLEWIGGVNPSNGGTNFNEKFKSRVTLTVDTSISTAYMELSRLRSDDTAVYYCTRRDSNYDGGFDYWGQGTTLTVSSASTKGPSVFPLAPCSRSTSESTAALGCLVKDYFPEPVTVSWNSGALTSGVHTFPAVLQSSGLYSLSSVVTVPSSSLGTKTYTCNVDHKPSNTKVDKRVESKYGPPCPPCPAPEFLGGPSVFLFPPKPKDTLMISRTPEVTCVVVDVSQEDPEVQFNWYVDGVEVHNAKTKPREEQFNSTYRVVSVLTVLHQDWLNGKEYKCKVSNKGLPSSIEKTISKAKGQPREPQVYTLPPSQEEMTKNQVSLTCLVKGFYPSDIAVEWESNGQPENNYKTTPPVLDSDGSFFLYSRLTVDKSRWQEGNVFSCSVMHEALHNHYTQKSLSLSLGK
light: B12 light
notes: IgG4 S228P / kappa; Differs from lot 98AIO by an HFR4 mutation; also called Humanized x [PD-1_H] mAb (08A/HuPD1A-11 S61N WT) S228P IgG4 / Kappa, with HFR4 mutation
For B16, the “KD (REF)/KD” value in assay [2] is 5.2. In assay [3], this molecule gave a Kd of 0.045 nM.

B17: Mouse 09A (antibody, mouse IgG1, kappa, V domains shown)
VH: QVQLQQPGAELVKPGTSVKLSCKASGYTFTNYYMYWVKQRPGQGLEWIGGINPSNGGTNFNEKFKNKATLTVDSSSSTTYMQLSSLTSEDSAVYYCTRRDYRFDMGFDYWGQGTTLTVSS
VL: DIVLTQSPASLAVSLGQRAAISCRASKGVSTSGYSYLHWYQQKPGQSPKLLIYLASYLESGVPARFSGSGSGTDFTLNIHPVEEEDAATYYCQHSRDLPLTFGTGTKLELKR
notes: Mouse IgG1 / kappa; also called 03AFN; Mouse x [PD-1_H] mAb (clone 09A) IgG1 / Kappa
Consider B17, for which the “KD (REF)/KD” value in assay [2] stood at 0.5. Also, the dissociation constant (Kd) in assay [3] stood at 0.46 nM.

B18: Mouse 08A (REF) (antibody, mouse IgG1, kappa, V domains shown)
VH: QVQLQQPGAELVKPGASVKLSCKASGYTFTSYYLYWMKQRPGQGLEWIGGVNPSNGGTNFSEKFKSKATLTVDKSSSTAYMQLSSLTSEDSAVYYCTRRDSNYDGGFDYWGQGTTLTVSS
VL: B17 VL with A9T, A20T, G28S, Y34F, S47P, Y53F, Y57N, R96W, D97E, T104A
notes: Mouse IgG1 / kappa; also called 09AFF; parental mouse 08A antibody
Regarding B18, the “KD (REF)/KD” value in assay [2] was 1. For the same molecule, in assay [3], the dissociation constant (Kd) worked out at 0.24 nM.

B19: Mouse 08A N59E (antibody, mouse IgG1, kappa, V domains shown)
VH: B18 VH with N59E
VL: B17 VL with A9T, A20T, G28S, Y34F, S47P, Y53F, Y57N, R96W, D97E, T104A
notes: Mouse IgG1 / kappa; also called 39AFL; Mouse x [PD-1_H] mAb (Clone 1.08 N59E) IgG1 / Kappa
Consider B19, for which the “KD (REF)/KD” value in assay [2] worked out at 0.03. The molecule also gave a Kd in assay [3] of 5.9 nM.

B20: Mouse 08A N59A (antibody, mouse IgG1, kappa, V domains shown)
VH: B18 VH with N59A
VL: B17 VL with A9T, A20T, G28S, Y34F, S47P, Y53F, Y57N, R96W, D97E, T104A
notes: Mouse IgG1 / kappa; also called 80AFH; Mouse x [PD-1_H] mAb (Clone 1.08 N59A) IgG1 / Kappa
With B20, the “KD (REF)/KD” value in assay [2] was found to be 0.4. The molecule further gave an equilibrium dissociation constant (Kd) in assay [3] of 0.59 nM.

B21: Mouse 08A N59Q (antibody, mouse IgG1, kappa, V domains shown)
VH: B18 VH with N59Q
VL: B17 VL with A9T, A20T, G28S, Y34F, S47P, Y53F, Y57N, R96W, D97E, T104A
notes: Mouse IgG1 / kappa; also called 38AFL; Mouse x [PD-1_H] mAb (Clone 1.08 N59Q) IgG1 / Kappa
As to B21, the “KD (REF)/KD” value in assay [2] was 0.04. The same molecule registered a dissociation constant (Kd) in assay [3] of 9.6 nM.

Values taken from patent publication US20220251194A1 (Merck Sharp & Dohme, published 2022).
